Results on ten molecules are retold here after patent publication US20070087400A1, “Covalent tethering of functional groups to proteins and substrates therefor” (priority 2004, published 2007).

Data set [1] is described as follows: Hydrolysis of CCF2 (FRET-based substrate) by BlaZ. Format: biochemical, Staphylococcus aureus PC1. The text has this: In CCF2, the cephalosporin core links a 7-hydroxycoumarin to a fluorescein. In the intact molecule, excitation of the coumarin (Eex-409 nm) results in FRET to the fluorescein, which emits green light (Eem-520 nm). Cleavage of CCF2 by β-lactamase results in spatial separation of the two dyes, disrupting FRET such that excitation of coumarin now gives rise to blue fluorescence (Eex-447 nm). CCF2 was purchased from Aurora Biosciences Corporation (San Diego, Calif.). Reduction of the FRET signal and an increase in blue fluorescence were measured on Fluorescence Multi-well Plate Reader CytoFluorI (PerSeptive Biosystems, Framingham, Mass., USA).

Data set [2] can be described thus: Hydrolysis of FAP by BlaZ (loss of absorbance at 344 nm). Format: biochemical, Staphylococcus aureus PC1. To be noted: 25° C., pH 6.8, up to 60 minutes. How it is done:
The chromogenic substrate 6-β-[(Furylacryloyl)amido]penicillanic acid triethylamine salt (FAP) was purchased from Calbiochem (La Jolla, Calif.). […] All assays were performed at 25° C. in 0.1 M potassium phosphate buffer at pH 6.8.

Data set [3] is described as follows: Precipitation of DhaA proteins with (NH4)2SO4. Format: physicochemical. The following applies: 2 hours, 4° C. How it is done: Aliquots of the supernatant obtained from E. coli expressing DhaA (WT or one of the mutants) were treated with increasing concentrations of (NH4)2SO4. The proteins were exposed to each (NH4)2SO4 concentration for 2 hours (4° C.), pelleted by centrifugation, dialyzed overnight against buffer A, and resolved on SDS-PAGE.

Data set [4] in a line: Protein immobilization assay (substrate capture using immobilized DhaA). To be noted: biotin-PEG4-14-Cl substrate.
Data set [5] can be described thus: DhaA capture using immobilized biotin chloroalkane substrates (ELISA-type). The data set is classed as binding. (In general: In an ELISA, binding on a coated surface is turned into a signal by an enzyme label.)
Experimental: DhaA capture using immobilized chloroalkane substrates. […] Reactions between immobilized substrate and mutant DhaAs were performed using purified GST-DhaA-Flag fusions. Various concentrations of protein (100 μL; diluted in PBSTB) were incubated with immobilized substrate for various times at 25° C., and the reactions were stopped by emptying the plates and washing 4× with PBST. To detect bound DhaA, 100 μL anti-GST-HRP (Amersham) was added to each well at a 1:10,000 dilution (in PBSTB) and the plates incubated for 1 hour at 25° C.
Data set [6] can be described thus: In vivo labeling of DhaA mutants expressed in CHO-K1 cells (cell-to-gel analysis). Format: cell-based. To be noted: substrate concentration 5 μM. How it is done:
Cell-to-gel analysis. […] Proteins (2-10 μl/lane) were resolved on SDS-PAGE (4-20% gradient gels).

The nature of data set [7]: Thermostability analysis (residual activity by FP assay). The data set is classed as physicochemical. The following applies: 60 minute incubations. How it is done:
Thermostability analysis. The thermostability profiles of the DhaA mutants were determined by measuring the residual activity of the purified proteins following 15, 30 or 60 minute incubations at 4, 22, 30, 37, 42, 50 or 60° C. The FP assay was performed at room temperature (about 25° C.). […] For each clone, the labeling rate (slope of the linear range) was calculated for each condition. The rate observed following a 15 minute incubation at 4° C. was arbitrarily assigned as 100% activity. The residual activity (%) was calculated for each condition. To determine stability, for each incubation time, the % of residual activity was plotted against the incubation temperatures. To calculate half-life, for each incubation temperature, the % of residual activity was plotted against the incubation time. The time where 50% activity was lost was extrapolated from the graph.

The nature of data set [8]: Covalent alkyl-enzyme formation in whole cells. The following applies: 15 μM substrate, 4° C., approximately 18 hours.
A short description of data set [9]: In vitro covalent alkyl-enzyme formation in crude lysates. To be noted: 25 μM substrate, 2 hours at room temperature.

B1: BlaZ.N170Q (protein, UniProt P00807 25-281, looked up, variant N170Q)
Beta-lactamase: KELNDLEKKYNAHIGVYALDTKSGKEVKFNSDKRFAYASTSKAINSAILLEQVPYNKLNKKVHINKDDIVAYSPILEKYVGKDITLKALIEASMTYSDNTANNKIIKEIGGIKKVKQRLKELGDKVTNPVRYEIELNYYSPKSKKDTSTPAAFGKTLNKLIANGKLSKEQKKFLLDLMLNNKSGDTLIKDGVPKDYKVADKSGQAITYASRNDVAFVYPKGQSEPIVLVIFTNKDNKSDKPNDKLISETAKSVMKEF
Regarding B1, the “hydrolysis of CCF2” value in data set [1] was “reduced the ability”. In data set [2], the “hydrolysis of FAP” value is “could not be detected”.

B2: DhaA.H272Q: DhaA mutant with H272Q substitution (protein, UniProt P0A3G2 1-293, looked up, variant H272Q)
Haloalkane dehalogenase: MSEIGTGFPFDPHYVEVLGERMHYVDVGPRDGTPVLFLHGNPTSSYLWRNIIPHVAPSHRCIAPDLIGMGKSDKPDLDYFFDDHVRYLDAFIEALGLEEVVLVIHDWGSALGFHWAKRNPERVKGIACMEFIRPIPTWDEWPEFARETFQAFRTADVGRELIIDQNAFIEGALPKCVVRPLTEVEMDHYREPFLKPVDREPLWRFPNELPIAGEPANIVALVEAYMNWLHQSPVPKLLFWGTPGVLIPPAEAARLAESLPNCKTVDIGPGLQYLQEDNPDLIGSEIARWLPAL
As for B2, the “(NH4)2SO4 concentration at which the protein was precipitated” value (“(NH4)2SO4 concentration” for short) in [3] turned out to be 10%.

B3: DhaA.H272F YC: DhaA.H272F based mutant with Y273C (protein, UniProt P0A3G2 1-293, looked up, variant H272F Y273C)
Haloalkane dehalogenase: MSEIGTGFPFDPHYVEVLGERMHYVDVGPRDGTPVLFLHGNPTSSYLWRNIIPHVAPSHRCIAPDLIGMGKSDKPDLDYFFDDHVRYLDAFIEALGLEEVVLVIHDWGSALGFHWAKRNPERVKGIACMEFIRPIPTWDEWPEFARETFQAFRTADVGRELIIDQNAFIEGALPKCVVRPLTEVEMDHYREPFLKPVDREPLWRFPNELPIAGEPANIVALVEAYMNWLHQSPVPKLLFWGTPGVLIPPAEAARLAESLPNCKTVDIGPGLFCLQEDNPDLIGSEIARWLPAL
Turning to B3, in [4], the “activity compared to parental clones” value is given as “significantly improved”.

B4: DhaA.H272F YL: DhaA.H272F based mutant with Y273L (protein, UniProt P0A3G2 1-293, looked up, variant H272F Y273L)
Haloalkane dehalogenase: MSEIGTGFPFDPHYVEVLGERMHYVDVGPRDGTPVLFLHGNPTSSYLWRNIIPHVAPSHRCIAPDLIGMGKSDKPDLDYFFDDHVRYLDAFIEALGLEEVVLVIHDWGSALGFHWAKRNPERVKGIACMEFIRPIPTWDEWPEFARETFQAFRTADVGRELIIDQNAFIEGALPKCVVRPLTEVEMDHYREPFLKPVDREPLWRFPNELPIAGEPANIVALVEAYMNWLHQSPVPKLLFWGTPGVLIPPAEAARLAESLPNCKTVDIGPGLFLLQEDNPDLIGSEIARWLPAL
With B4, the “activity compared to parental clones” value in [4] is recorded as “significantly improved”. Moreover, the “reaction with immobilized biotin-PEG4-14-Cl” value in data set [5] is listed as “react most efficiently”.

B5: DhaA.H272F H11: first generation DhaA.H272F mutant with K175M and C176G (protein, UniProt P0A3G2 1-293, looked up, variant K175M C176G H272F)
Haloalkane dehalogenase: MSEIGTGFPFDPHYVEVLGERMHYVDVGPRDGTPVLFLHGNPTSSYLWRNIIPHVAPSHRCIAPDLIGMGKSDKPDLDYFFDDHVRYLDAFIEALGLEEVVLVIHDWGSALGFHWAKRNPERVKGIACMEFIRPIPTWDEWPEFARETFQAFRTADVGRELIIDQNAFIEGALPMGVVRPLTEVEMDHYREPFLKPVDREPLWRFPNELPIAGEPANIVALVEAYMNWLHQSPVPKLLFWGTPGVLIPPAEAARLAESLPNCKTVDIGPGLFYLQEDNPDLIGSEIARWLPAL
For B5, the “in vivo labeling performance compared to parent DhaA.H272F” value in [6] is “superior performance characteristics”. Besides, in data set [5] (biotin-14-Cl, biotin-X-14-Cl, biotin-PEG4-14-Cl), the “reaction with all biotin substrates tested” value is “reacted poorly”. Moreover, the “retained significant labeling activity following incubation as high as” value in data set [7] was at most 50 °C.

B6: DhaA.H272A: DhaA mutant with H272A substitution (protein, UniProt P0A3G2 1-293, looked up, variant H272A)
Haloalkane dehalogenase: MSEIGTGFPFDPHYVEVLGERMHYVDVGPRDGTPVLFLHGNPTSSYLWRNIIPHVAPSHRCIAPDLIGMGKSDKPDLDYFFDDHVRYLDAFIEALGLEEVVLVIHDWGSALGFHWAKRNPERVKGIACMEFIRPIPTWDEWPEFARETFQAFRTADVGRELIIDQNAFIEGALPKCVVRPLTEVEMDHYREPFLKPVDREPLWRFPNELPIAGEPANIVALVEAYMNWLHQSPVPKLLFWGTPGVLIPPAEAARLAESLPNCKTVDIGPGLAYLQEDNPDLIGSEIARWLPAL
For the molecule B6, the “(NH4)2SO4 concentration” value in [3] came to 10%.

B7: DhaA.H272F: DhaA mutant, catalytic His272 replaced with Phe (protein, UniProt P0A3G2 1-293, looked up, variant H272F)
Haloalkane dehalogenase: MSEIGTGFPFDPHYVEVLGERMHYVDVGPRDGTPVLFLHGNPTSSYLWRNIIPHVAPSHRCIAPDLIGMGKSDKPDLDYFFDDHVRYLDAFIEALGLEEVVLVIHDWGSALGFHWAKRNPERVKGIACMEFIRPIPTWDEWPEFARETFQAFRTADVGRELIIDQNAFIEGALPKCVVRPLTEVEMDHYREPFLKPVDREPLWRFPNELPIAGEPANIVALVEAYMNWLHQSPVPKLLFWGTPGVLIPPAEAARLAESLPNCKTVDIGPGLFYLQEDNPDLIGSEIARWLPAL
B7: the “formation of covalent alkyl-enzyme intermediate in whole cells” value in [8] was “capable of generating a covalent alkyl-enzyme intermediate”. In addition, the “formation of alkyl-enzyme covalent intermediate in crude lysates” value in [9] is listed as “very efficient at producing this intermediate”.

B8: DhaA.H272G: DhaA mutant with H272G substitution (protein, UniProt P0A3G2 1-293, looked up, variant H272G)
Haloalkane dehalogenase: MSEIGTGFPFDPHYVEVLGERMHYVDVGPRDGTPVLFLHGNPTSSYLWRNIIPHVAPSHRCIAPDLIGMGKSDKPDLDYFFDDHVRYLDAFIEALGLEEVVLVIHDWGSALGFHWAKRNPERVKGIACMEFIRPIPTWDEWPEFARETFQAFRTADVGRELIIDQNAFIEGALPKCVVRPLTEVEMDHYREPFLKPVDREPLWRFPNELPIAGEPANIVALVEAYMNWLHQSPVPKLLFWGTPGVLIPPAEAARLAESLPNCKTVDIGPGLGYLQEDNPDLIGSEIARWLPAL
Consider B8, for which, in data set [3], the “(NH4)2SO4 concentration” value is listed as 10%.

B9: DhaA.H272F YM: DhaA.H272F based mutant with Y273M (protein, UniProt P0A3G2 1-293, looked up, variant H272F Y273M)
Haloalkane dehalogenase: MSEIGTGFPFDPHYVEVLGERMHYVDVGPRDGTPVLFLHGNPTSSYLWRNIIPHVAPSHRCIAPDLIGMGKSDKPDLDYFFDDHVRYLDAFIEALGLEEVVLVIHDWGSALGFHWAKRNPERVKGIACMEFIRPIPTWDEWPEFARETFQAFRTADVGRELIIDQNAFIEGALPKCVVRPLTEVEMDHYREPFLKPVDREPLWRFPNELPIAGEPANIVALVEAYMNWLHQSPVPKLLFWGTPGVLIPPAEAARLAESLPNCKTVDIGPGLFMLQEDNPDLIGSEIARWLPAL
Regarding B9, in data set [4], the “activity compared to parental clones” value is on record as “significantly improved”. Moreover, the “reaction with immobilized biotin-PEG4-14-Cl” value in [5] is listed as “react most efficiently”.

B10: DhaA.WT: wild-type Rhodococcus rhodochrous dehalogenase (DhaA) (protein, UniProt P0A3G2 1-293, looked up)
Haloalkane dehalogenase: MSEIGTGFPFDPHYVEVLGERMHYVDVGPRDGTPVLFLHGNPTSSYLWRNIIPHVAPSHRCIAPDLIGMGKSDKPDLDYFFDDHVRYLDAFIEALGLEEVVLVIHDWGSALGFHWAKRNPERVKGIACMEFIRPIPTWDEWPEFARETFQAFRTADVGRELIIDQNAFIEGALPKCVVRPLTEVEMDHYREPFLKPVDREPLWRFPNELPIAGEPANIVALVEAYMNWLHQSPVPKLLFWGTPGVLIPPAEAARLAESLPNCKTVDIGPGLHYLQEDNPDLIGSEIARWLPAL
On to B10, for which, in data set [9], the “formation of alkyl-enzyme covalent intermediate in crude lysates” value was “No such product could be detected”.
